Measured values: publication doi:10.1101/2025.06.10.658772 (bioRxiv, 2025)

Key:
[1] = target: T1, C-terminally large NanoLuc fragment (LgBiT)-fused Dr-GPR25 (zebrafish (Danio rerio), UniProt A0AC58GT18 1-377); experiment: cell-based or functional assay
T1 sequence: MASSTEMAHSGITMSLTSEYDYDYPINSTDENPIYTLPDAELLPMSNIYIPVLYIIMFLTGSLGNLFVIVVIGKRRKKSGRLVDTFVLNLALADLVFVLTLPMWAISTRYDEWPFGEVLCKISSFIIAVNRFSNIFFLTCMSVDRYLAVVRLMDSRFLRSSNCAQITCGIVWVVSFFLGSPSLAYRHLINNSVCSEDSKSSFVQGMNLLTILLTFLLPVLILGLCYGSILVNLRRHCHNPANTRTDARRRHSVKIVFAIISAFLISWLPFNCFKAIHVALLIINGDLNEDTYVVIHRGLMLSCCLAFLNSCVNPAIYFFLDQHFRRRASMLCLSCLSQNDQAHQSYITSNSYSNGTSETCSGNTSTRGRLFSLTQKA

[2] = target: T2, C-terminally LgBiT-fused Lc-GPR25 (coelacanth (Latimeria chalumnae), UniProt H3AQL3 1-365); experiment: cell-based or functional assay
T2 sequence: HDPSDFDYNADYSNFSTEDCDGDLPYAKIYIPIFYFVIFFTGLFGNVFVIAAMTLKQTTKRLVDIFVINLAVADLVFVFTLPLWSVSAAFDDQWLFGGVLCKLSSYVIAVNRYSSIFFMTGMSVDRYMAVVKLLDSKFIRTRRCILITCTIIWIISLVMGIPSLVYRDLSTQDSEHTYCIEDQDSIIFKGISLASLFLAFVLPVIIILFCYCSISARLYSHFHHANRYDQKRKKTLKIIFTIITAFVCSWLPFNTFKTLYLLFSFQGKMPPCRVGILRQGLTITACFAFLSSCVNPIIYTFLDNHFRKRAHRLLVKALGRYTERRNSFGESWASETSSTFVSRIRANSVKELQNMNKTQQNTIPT

B1: N-terminally 6×His-tagged wild-type (WT) human CXCL17 (ligand)
chain: SSLNPGVARGHRDRGQASRRWLQEGGQECECKDWFLRAPRRKFMTVSGLPKKQCPCDHFKGNVKKTRHQRHHRKPNKHSRACQQFLKQCQLRSFALPL
[1]
  NanoBiT-based β-arrestin recruitment (SmBiT-ARRB2), EC50 of the dose curve: ~60 nM
  NanoBiT-based β-arrestin recruitment (SmBiT-ARRB2), maximal effect: ~5 fold over background
[2]
  NanoBiT-based β-arrestin recruitment (SmBiT-ARRB2), EC50 of the dose curve: ~300 nM
  NanoBiT-based β-arrestin recruitment (SmBiT-ARRB2), maximal effect: ~3 fold over background
